Consider one substance from patent US20110135656A1.

The experiment deals with C5a receptor (mouse) (UniProt P30993). In words: cell-based or functional assay.
C5a receptor (mouse), sequence (P30993 whole entry): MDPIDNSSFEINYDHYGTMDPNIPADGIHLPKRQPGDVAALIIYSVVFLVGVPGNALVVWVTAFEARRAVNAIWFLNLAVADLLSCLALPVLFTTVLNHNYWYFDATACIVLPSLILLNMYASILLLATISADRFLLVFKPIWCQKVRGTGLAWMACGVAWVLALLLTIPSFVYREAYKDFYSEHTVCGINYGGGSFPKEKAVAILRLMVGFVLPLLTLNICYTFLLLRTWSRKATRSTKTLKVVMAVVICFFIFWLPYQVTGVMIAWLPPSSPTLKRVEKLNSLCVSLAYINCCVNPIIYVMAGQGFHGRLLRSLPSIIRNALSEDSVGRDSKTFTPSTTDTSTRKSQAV

For “Murine C5a (from UniProt P06684 679-755) (ligand)”, the 6 hr viability of C5-deficient or C3-/- T cells in serum-free medium was found to be 25%.
